# According to patent US20260242735A1 (UNIVERSIT T BASEL, published 2026):
# Tests used:
# Assay in all cases: flow cytometry, IgG on cells expressing the mutant
# [1] = target: human CD33 variant R122E (human, UniProt P20138 18-364)
# [2] = target: human CD33 variant Y49V (human, UniProt P20138 18-364)
# [3] = target: human CD33 variant R122S (human, UniProt P20138 18-364)
# [4] = target: human CD33 variant Y127R (human, UniProt P20138 18-364)
# [5] = target: human CD33 variant I47N (human, UniProt P20138 18-364)
# [6] = target: human CD33 variant Y50N (human, UniProt P20138 18-364)
# [7] = target: human CD33 variant K52Y (human, UniProt P20138 18-364)
# Chain of human CD33 variant K52Y (P20138 18-364 K52Y limits assumed): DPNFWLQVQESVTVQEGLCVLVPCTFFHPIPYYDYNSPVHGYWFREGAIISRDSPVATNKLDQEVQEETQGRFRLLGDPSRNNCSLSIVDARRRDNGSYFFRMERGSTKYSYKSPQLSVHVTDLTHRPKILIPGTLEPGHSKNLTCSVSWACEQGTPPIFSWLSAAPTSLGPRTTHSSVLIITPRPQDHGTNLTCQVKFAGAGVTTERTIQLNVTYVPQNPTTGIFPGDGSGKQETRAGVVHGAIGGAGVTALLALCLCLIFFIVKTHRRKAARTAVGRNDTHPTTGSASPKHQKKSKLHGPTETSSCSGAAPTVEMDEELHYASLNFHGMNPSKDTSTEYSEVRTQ
# [8] = target: human CD33 variant I47W (human, UniProt P20138 18-364)
# [9] = target: human CD33 variant M120V (human, UniProt P20138 18-364)
# [10] = target: human CD33 variant P48W (human, UniProt P20138 18-364)
# Chain of human CD33 variant P48W (P20138 18-364 P48W limits assumed): as the sequence (P20138 18-364 K52Y limits assumed) above, with P31W, Y35K counted along it
# [11] = target: human CD33 variant P48H (human, UniProt P20138 18-364)
# [12] = target: human CD33 variant Y50Q (human, UniProt P20138 18-364)
# Chain of human CD33 variant Y50Q (P20138 18-364 Y50Q limits assumed): as the sequence (P20138 18-364 K52Y limits assumed) above, with Y33Q, Y35K counted along it
# [13] = target: human CD33 variant I47P (human, UniProt P20138 18-364)
# [14] = target: human CD33 variant D51N (human, UniProt P20138 18-364)
# Chain of human CD33 variant D51N (P20138 18-364 D51N limits assumed): as the sequence (P20138 18-364 K52Y limits assumed) above, with D34N, Y35K counted along it
# [15] = target: human CD33 variant Y50G (human, UniProt P20138 18-364)
# [16] = target: human CD33 variant S131G (human, UniProt P20138 18-364)
# [17] = target: human CD33 variant Y50H (human, UniProt P20138 18-364)
# Chain of human CD33 variant Y50H (P20138 18-364 Y50H limits assumed): as the sequence (P20138 18-364 K52Y limits assumed) above, with Y33H, Y35K counted along it
# [18] = target: human CD33 variant K52H (human, UniProt P20138 18-364)
# Chain of human CD33 variant K52H (P20138 18-364 K52H limits assumed): as the sequence (P20138 18-364 K52Y limits assumed) above, with Y35H counted along it
# [19] = target: human CD33 variant K52F (human, UniProt P20138 18-364)
# Chain of human CD33 variant K52F (P20138 18-364 K52F limits assumed): as the sequence (P20138 18-364 K52Y limits assumed) above, with Y35F counted along it
# [20] = target: human CD33 variant P48K (human, UniProt P20138 18-364)
# [21] = target: human CD33 variant P48M (human, UniProt P20138 18-364)
# [22] = target: human CD33 variant Y50R (human, UniProt P20138 18-364)
# [23] = target: human CD33 variant Y50I (human, UniProt P20138 18-364)
# [24] = target: human CD33 variant P48G (human, UniProt P20138 18-364)
# Chain of human CD33 variant P48G (P20138 18-364 P48G limits assumed): as the sequence (P20138 18-364 K52Y limits assumed) above, with P31G, Y35K counted along it
# [25] = target: human CD33 variant I47E (human, UniProt P20138 18-364)
# [26] = target: human CD33 variant M120I (human, UniProt P20138 18-364)
# [27] = target: human CD33 variant M120L (human, UniProt P20138 18-364)
# Chain of human CD33 variant M120L (P20138 18-364 M120L limits assumed): as the sequence (P20138 18-364 K52Y limits assumed) above, with Y35K, M103L counted along it
# [28] = target: human CD33 variant K52E (human, UniProt P20138 18-364)
# [29] = target: human CD33 variant K52S (human, UniProt P20138 18-364)
# Chain of human CD33 variant K52S (P20138 18-364 K52S limits assumed): as the sequence (P20138 18-364 K52Y limits assumed) above, with Y35S counted along it
# [30] = target: human CD33 variant Y49T (human, UniProt P20138 18-364)
# [31] = target: human CD33 variant Y50P (human, UniProt P20138 18-364)
# [32] = target: human CD33 variant Y49D (human, UniProt P20138 18-364)
# Chain of human CD33 variant Y49D (P20138 18-364 Y49D limits assumed): as the sequence (P20138 18-364 K52Y limits assumed) above, with Y32D, Y35K counted along it
# [33] = target: human CD33 variant K52G (human, UniProt P20138 18-364)
# Chain of human CD33 variant K52G (P20138 18-364 K52G limits assumed): as the sequence (P20138 18-364 K52Y limits assumed) above, with Y35G counted along it
# [34] = target: human CD33 variant Y49R (human, UniProt P20138 18-364)
# [35] = target: human CD33 variant K52T (human, UniProt P20138 18-364)
# [36] = target: human CD33 variant Y129S (human, UniProt P20138 18-364)
# Chain of human CD33 variant R122E (P20138 18-364 R122E limits assumed): as the sequence (P20138 18-364 K52Y limits assumed) above, with Y35K, R105E counted along it
# Chain of human CD33 variant R122S (P20138 18-364 R122S limits assumed): as the sequence (P20138 18-364 K52Y limits assumed) above, with Y35K, R105S counted along it
Binder,Mean % WT Binding [1],Mean % WT Binding [2],Mean % WT Binding [3],Mean % WT Binding [4],Mean % WT Binding [5],Mean % WT Binding [6],Mean % WT Binding [7],Mean % WT Binding [8],Mean % WT Binding [9],Mean % WT Binding [10],Mean % WT Binding [11],Mean % WT Binding [12],Mean % WT Binding [13],Mean % WT Binding [14],Mean % WT Binding [15],Mean % WT Binding [16],Mean % WT Binding [17],Mean % WT Binding [18],Mean % WT Binding [19],Mean % WT Binding [20],also measured
"Refmab #3 (antibody, human IgG1, V domains shown, Tested in IgG format; human IgG1 Fc silent (PG-LALA)) VH: QVQLVQSGAEVKKPGSSVKVSCKASGYTFTDYNMHWVRQAPGQGLEWIGYIYPYNGGTGYNQKFKSKATITADESTNTAYMELSSLRSEDTAVYYCARGRPAMDYWGQGTLVTVSS VL: DIQMTQSPSSLSASVGDRVTITCRASESVDNYGISFMNWFQQKPGKAPKLLIYAASNQGSGVPSRFSGSGSGTDFTLTISSLQPDDFATYYCQQSKEVPWTFGQGTKVEIK",101 % of WT,106 % of WT,111 % of WT,65.9 % of WT,91.6 % of WT,92.4 % of WT,41.7 % of WT,112 % of WT,51.1 % of WT,96.4 % of WT,87.6 % of WT,95.4 % of WT,2.8 % of WT,107 % of WT,91.2 % of WT,100 % of WT,111 % of WT,101 % of WT,6 % of WT,67.3 % of WT,Mean % WT Binding [21]: 106 % of WT; Mean % WT Binding [22]: 83 % of WT; Mean % WT Binding [23]: 92.8 % of WT; Mean % WT Binding [24]: 108 % of WT; Mean % WT Binding [25]: 109 % of WT; Mean % WT Binding [26]: 81.6 % of WT; Mean % WT Binding [27]: 90.8 % of WT; Mean % WT Binding [28]: 106 % of WT; Mean % WT Binding [29]: 96.8 % of WT; Mean % WT Binding [30]: 96.5 % of WT; Mean % WT Binding [31]: 103 % of WT; Mean % WT Binding [32]: 94.4 % of WT; Mean % WT Binding [33]: 106 % of WT; Mean % WT Binding [34]: 79 % of WT; Mean % WT Binding [35]: 103 % of WT
"Refmab #2 (antibody, human IgG1, V domains shown, Tested in IgG format; human IgG1 Fc silent (PG-LALA)) VH: QVQLVQSGAEVKKPGSSVKVSCKASGGTFSDYAISWVRQAPGQGLEWMGRIIPILGVADYAQKFQGRVTITADKSTRTAYMELSSLRSEDTAVYYCARNWADAFDIWGQGTMVTVSS VL: DIQLTQSPSSLSASVGDRVTITCRASQGISSVLAWYQQKPGKAPKLLIYDASSLESGVPSRFSGSGSGTDFTLTISSLQPEDFATYYCQQFDSSITFGQGTKLEIK",0.6 % of WT,90.4 % of WT,3.4 % of WT,110 % of WT,0.4 % of WT,108 % of WT,21 % of WT,0.6 % of WT,95.5 % of WT,68.8 % of WT,81.9 % of WT,113 % of WT,0.7 % of WT,96.7 % of WT,104 % of WT,112 % of WT,119 % of WT,84.7 % of WT,3.9 % of WT,106 % of WT,Mean % WT Binding [36]: 102 % of WT; Mean % WT Binding [21]: 87.5 % of WT; Mean % WT Binding [22]: 109 % of WT; Mean % WT Binding [23]: 126 % of WT; Mean % WT Binding [24]: 80.8 % of WT; Mean % WT Binding [25]: 0.5 % of WT; Mean % WT Binding [26]: 95.7 % of WT; Mean % WT Binding [27]: 124 % of WT; Mean % WT Binding [28]: 52.4 % of WT; Mean % WT Binding [29]: 113 % of WT; Mean % WT Binding [30]: 76.3 % of WT; Mean % WT Binding [31]: 95.8 % of WT; Mean % WT Binding [32]: 1.4 % of WT; Mean % WT Binding [33]: 25.4 % of WT; Mean % WT Binding [34]: 44.9 % of WT; Mean % WT Binding [35]: 120 % of WT
"Refmab #1 (antibody, human IgG1, V domains shown, Tested in IgG format; human IgG1 (Absolute Antibody hP67.6, Cat. No. Ab00283-10.0); also called hP67.6) VH: EVQLVQSGAEVKKPGSSVKVSCKASGYTITDSNIHWVRQAPGQSLEWIGYIYPYNGGTDYNQKFKNRATLTVDNPTNTAYMELSSLRSEDTAFYYCVNGNPWLAYWGQGTLVTVSS VL: DIQLTQSPSTLSASVGDRVTITCRASESLDNYGIRFLTWFQQKPGKAPKLLMYAASNQGSGVPSRFSGSGSGTEFTLTISSLQPDDFATYYCQQTKEVPWSFGQGTKVEVK",110 % of WT,101 % of WT,111 % of WT,84 % of WT,87.8 % of WT,96.3 % of WT,45 % of WT,111 % of WT,98.7 % of WT,95.6 % of WT,97.4 % of WT,93.9 % of WT,84.5 % of WT,99 % of WT,92.8 % of WT,95.1 % of WT,103 % of WT,94.2 % of WT,4.5 % of WT,99.4 % of WT,Mean % WT Binding [36]: 68.7 % of WT; Mean % WT Binding [21]: 110 % of WT; Mean % WT Binding [22]: 94.1 % of WT; Mean % WT Binding [23]: 99.2 % of WT; Mean % WT Binding [24]: 95 % of WT; Mean % WT Binding [25]: 101 % of WT; Mean % WT Binding [26]: 96.6 % of WT; Mean % WT Binding [27]: 98.4 % of WT; Mean % WT Binding [28]: 98.6 % of WT; Mean % WT Binding [29]: 84.3 % of WT; Mean % WT Binding [30]: 108 % of WT; Mean % WT Binding [31]: 98.1 % of WT; Mean % WT Binding [32]: 93.4 % of WT; Mean % WT Binding [33]: 98.8 % of WT; Mean % WT Binding [34]: 87.1 % of WT; Mean % WT Binding [35]: 102 % of WT
"Refmab #4 (antibody, human IgG1, V domains shown, Tested in IgG format; human IgG1 Fc silent (PG-LALA)) VH: QVQLVQSGAEVKKPGESVKVSCKASGYTFTNYGMNWVKQAPGQGLEWMGWINTYTGEPTYADKFQGRVTMTTDTSTSTAYMEIRNLGGDDTAVYYCARWSWSDGYYVYFDYWGQGTSVTVSS VL: DIVMTQSPDSLTVSLGERTTINCKSSQSVLDSSTNKNSLAWYQQKPGQPPKLLLSWASTRESGIPDRFSGSGSGTDFTLTIDSPQPEDSATYYCQQSAHFPITFGQGTRLEIK",79.2 % of WT,46.9 % of WT,90.2 % of WT,116 % of WT,74.8 % of WT,2.3 % of WT,20.7 % of WT,86.8 % of WT,100 % of WT,1.3 % of WT,2.9 % of WT,3.2 % of WT,49 % of WT,76.4 % of WT,4 % of WT,96.9 % of WT,2 % of WT,75.1 % of WT,3.5 % of WT,0 % of WT,Mean % WT Binding [36]: 107 % of WT; Mean % WT Binding [21]: 1.3 % of WT; Mean % WT Binding [22]: 0.3 % of WT; Mean % WT Binding [23]: 4.5 % of WT; Mean % WT Binding [24]: 0.4 % of WT; Mean % WT Binding [25]: 54.8 % of WT; Mean % WT Binding [26]: 101 % of WT; Mean % WT Binding [27]: 110 % of WT; Mean % WT Binding [28]: 51.4 % of WT; Mean % WT Binding [29]: 85 % of WT; Mean % WT Binding [30]: 2.8 % of WT; Mean % WT Binding [31]: 85.6 % of WT; Mean % WT Binding [32]: 2.5 % of WT; Mean % WT Binding [33]: 69.5 % of WT; Mean % WT Binding [34]: 55.7 % of WT; Mean % WT Binding [35]: 83.5 % of WT
